Measured values taken from US20120321619A1 (Bayer, published 2012).

B1: M31-B01 (antibody, human IgG1, V domains shown)
VH: EVQLLESGGGLVQPGGSLRLSCAASGFTFSNAWMSWVRQAPGKGLEWVSYISSSGSTIYYADSVKGRFTISRDNSKNTLYLQMNSLRAEDTAVYYCAREGLWAFDYWGQGTLVTVTS
VL: QSVLTQPPSASGTPGQRVTISCTGSSSNIGAGYVVHWYQQLPGTAPKLLIYDNNKRPSGVPDRFSGSKSGTSASLAISGLRSEDEADYYCAAWDDRLNGPVFGGGTKLTVLG
notes: tested as human IgG1
B2: M20-D02 S-A (antibody, human IgG1, V domains shown)
VH: EVQLLESGGGLVQPGGSLRLSCAASGFTFSDYQMTWIRQTPGKGLEWVSGVSWNGARTHYADSVKGRFTISRDNSKNTLYLQMNSLRAEDTAVYYCAKGDYLVYSAYYFDSWGQGTLVTVTS
VL: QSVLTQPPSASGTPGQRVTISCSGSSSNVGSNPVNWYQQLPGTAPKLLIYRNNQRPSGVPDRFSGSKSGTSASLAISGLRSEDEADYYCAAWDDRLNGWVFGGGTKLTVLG
notes: tested as human IgG1

Columns and labels:
hC4.4a domain S2-Fc-his6 = biological target: T1, hC4.4a domain S2-Fc-his6 (human, UniProt O95274 138-223); assay: western blot of purified S2-Fc-6×HisTag fusion
T1 construct: C-terminal human IgG1 Fc-6×HisTag fusion from HEK293 6E cells; also called S2 Fc-6×HisTag; domain S2 of C4.4a
Description: The SDS gel was then blotted to a iblot gel transfer membrane (Invitrogen IB3010-02) using an iBlot device (Invitrogen). The membrane was blocked in DPBS pH 7.4+4% milk powder+0.1% Tween 20 for 16 h at 4° C., followed by three washing steps for 5 min at 20° C. in DPBS pH 7.4+0.1% Tween 20. M31-B01 (5.76 mg/ml) or M20-D02 S-A (3.49 mg/ml) were applied in dilutions of 1/5000 and 1/2000 respectively and incubated for 1.5 h at 20° C., followed by 2× washes in DPBS pH 7.4+0.1% Tween 20. The second antibody (alk. Phosphatase. Conjugate Goat anti human IgG, Fab specific; 109-055-097 Jackson ImmunoResearch) was incubated at a dilution of 1/1000 for 1.5 h at 20° C. Followed by 3 washing steps for 5 min at 20° C. in DPBS pH 7.4+0.1% Tween 20. Staining was performed with Sigma Fast BCIP/NBT/1 tablet in 10 ml water at 20° C. till the bands became visible. Staining reaction was stopped by washing with water.

[1] = biological target: T2, human C4.4a natively expressed on tumor cell lines (human, UniProt O95274 31-326); assay: FACS titration on BxPC3 cells (native C4.4a), IgG1 format, phycoerythrin-labelled goat anti-human IgG detection
T2 construct: whole, on cells; also called NCI H292; NCI H322
T2 sequence (looked up): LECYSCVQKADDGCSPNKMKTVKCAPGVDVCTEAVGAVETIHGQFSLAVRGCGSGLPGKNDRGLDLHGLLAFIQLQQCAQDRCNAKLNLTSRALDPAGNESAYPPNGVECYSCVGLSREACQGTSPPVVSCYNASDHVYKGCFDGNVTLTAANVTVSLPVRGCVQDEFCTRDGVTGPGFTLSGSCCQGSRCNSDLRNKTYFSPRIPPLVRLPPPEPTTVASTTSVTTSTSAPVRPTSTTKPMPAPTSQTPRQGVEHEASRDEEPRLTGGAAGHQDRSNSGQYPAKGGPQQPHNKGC
Description: FACS titration was performed in a 96 well microtiter plate, in which serial dilutions of the primary antibody in a volume of 50 W of FACS buffer (3% FCS, in PBS) were mixed with 50 μl of a cell suspension consisting of 2×10^5 cells/ml which had been detached with Cell Dissociation Solution (1×) Non-enzymatic (Sigma), and resuspended in FACS buffer. Incubation was performed at 4° C. for 1 hour with agitation. Cells were pelleted, washed with FACS buffer and resuspended in 100 μl/well of Phycoerythrin labeled goat anti human IgG (Dianova) solution in FACS buffer. Incubation and washing was performed as before. Analysis of cell-bound antibodies was done at the respective detection wavelength using the FACS Array device. EC₅₀ values were determined from fluorescence medians of duplicates using Swift 8.0 software.

[2] = biological target: T3, recombinant soluble murine C4.4a (mouse, UniProt Q91YK8 33-343, limits assumed); assay: SPR (Biacore T100), IgG1 captured by anti-human Fc, soluble C4.4a injected, 1:1 fit
T3 construct: also called mouse C4.4a; mC4.4a
T3 sequence (looked up): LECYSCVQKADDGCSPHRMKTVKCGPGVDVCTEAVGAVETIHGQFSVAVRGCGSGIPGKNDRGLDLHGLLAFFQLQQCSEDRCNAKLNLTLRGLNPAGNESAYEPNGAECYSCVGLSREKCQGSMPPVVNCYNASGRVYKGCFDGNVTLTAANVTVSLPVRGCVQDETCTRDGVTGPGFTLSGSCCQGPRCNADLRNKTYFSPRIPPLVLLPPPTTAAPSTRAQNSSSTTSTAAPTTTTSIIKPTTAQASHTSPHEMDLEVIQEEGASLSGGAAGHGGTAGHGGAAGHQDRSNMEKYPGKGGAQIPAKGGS
Description: (§1) Binding affinities of anti C4.4 antibodies were determined by surface plasmon resonance analysis on a Biacore T100 instrument (GE Healthcare Biacore, Inc.). Antibodies were immobilized onto a CM5 sensor chip through an indirect capturing reagent, anti-human IgG Fc. Reagents from the “Human Antibody Capture Kit” (BR-1008-39, GE Healthcare Biacore, Inc.) were used as described by the manufacturer. Approximately 5000 RU monoclonal mouse anti-human IgG (Fc) antibody were immobilized per cell. Anti C4.4 antibodies were injected at a concentration of 5 μg/ml at 10 μl/min for 10 sec to reach a capturing level of approximately 200 to 600 RU. Various concentrations (400 nM, 200 nM, 100 nM, 50 nM, 25 nM, 12.5 nM, 6.25 nM, and 3.12 nM) in HEPES-EP buffer (GE Healthcare Biacore, Inc.) of human or murine C4.4a were injected over immobilized anti C4.4a antibodies at a flow rate of 60 μl/min for 3 minutes and the dissociation was allowed for 10 minutes. Sensograms were generated after in-line reference cell correction followed by buffer sample subtraction. The dissociation equilibrium constant (KD) was calculated based on the ratio of association (kₒₙ) and dissociation rated (koff) constants, obtained by fitting sensograms with a first order 1:1 binding model using Biavaluation Software (version 4.0).

[3] = biological target: T4, recombinant soluble human C4.4a (human, UniProt O95274 31-308); assay: as above
T4 construct: recombinant, soluble, purified protein; also called hC4.4a; full length C4.4a
T4 sequence: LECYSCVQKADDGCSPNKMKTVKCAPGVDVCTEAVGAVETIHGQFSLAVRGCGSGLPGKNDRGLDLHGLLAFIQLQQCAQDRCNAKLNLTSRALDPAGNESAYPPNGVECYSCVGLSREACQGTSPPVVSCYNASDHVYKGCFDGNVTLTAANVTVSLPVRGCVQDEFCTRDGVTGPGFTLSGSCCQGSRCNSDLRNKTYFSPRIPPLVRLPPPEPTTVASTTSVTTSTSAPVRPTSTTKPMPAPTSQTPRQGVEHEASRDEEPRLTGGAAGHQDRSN
Description: as §1

Row | Binder | binding result (hC4.4a domain S2-Fc-his6) | EC50 [1] | Kd [2] | Kd [3]
1 | B1 | no binding | 0.3 nM | 130 nM | 70 nM
2 | B2 | no binding | 1 nM | 180 nM | 220 nM
